Test [1] deals with T15 peptide derived from the human α-tubulin αK40 loop (human).
In test [2] the target is T9 peptide derived from the human α-tubulin αK40 loop (human).
The target in test [3] is free alpha/beta-tubulin dimers from porcine brain (pig (purified from porcine brain)) (UniProt P02550).

Here are results for one substance from publication PMC5599508.

UniProt P02550, sequence (P02550 whole entry, chain 1 of 2): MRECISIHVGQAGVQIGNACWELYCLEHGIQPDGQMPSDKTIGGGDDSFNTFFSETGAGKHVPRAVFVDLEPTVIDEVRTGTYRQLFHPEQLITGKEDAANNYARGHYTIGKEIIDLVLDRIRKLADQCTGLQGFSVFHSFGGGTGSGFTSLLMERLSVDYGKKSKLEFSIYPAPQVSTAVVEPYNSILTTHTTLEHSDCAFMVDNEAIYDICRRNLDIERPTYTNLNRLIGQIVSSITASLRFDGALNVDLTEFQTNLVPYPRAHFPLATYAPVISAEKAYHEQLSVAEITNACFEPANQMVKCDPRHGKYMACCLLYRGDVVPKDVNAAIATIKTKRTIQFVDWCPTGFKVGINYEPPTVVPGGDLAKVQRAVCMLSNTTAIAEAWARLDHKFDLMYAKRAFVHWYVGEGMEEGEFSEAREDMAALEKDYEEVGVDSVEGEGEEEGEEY
UniProt P02550, sequence (P02554 whole entry, chain 2 of 2, further chain): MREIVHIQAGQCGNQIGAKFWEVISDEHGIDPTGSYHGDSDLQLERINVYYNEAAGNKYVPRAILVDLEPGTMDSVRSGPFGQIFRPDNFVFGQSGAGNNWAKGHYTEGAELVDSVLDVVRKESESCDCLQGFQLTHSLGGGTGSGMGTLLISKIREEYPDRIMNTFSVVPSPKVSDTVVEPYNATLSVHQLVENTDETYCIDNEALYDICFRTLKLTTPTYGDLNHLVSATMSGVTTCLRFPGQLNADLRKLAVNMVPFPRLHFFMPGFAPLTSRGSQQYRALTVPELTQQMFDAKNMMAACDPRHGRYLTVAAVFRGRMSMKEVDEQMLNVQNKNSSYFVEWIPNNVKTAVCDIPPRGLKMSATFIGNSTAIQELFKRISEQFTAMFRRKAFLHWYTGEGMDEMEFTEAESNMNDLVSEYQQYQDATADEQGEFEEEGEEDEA

With “untagged full-length human histone deacetylase 6 (from UniProt Q9UBN7-1 1-1215) (enzyme)”, the values for the KM of the deacetylation of the acetylated αK40-derived peptide by HDAC6 (HPLC-based assay) in test [1] and in test [2] were 328 µM and 88 µM, respectively. Also, the KM of the deacetylation of free tubulin dimers by HDAC6 (steady-state kinetics, Western blot quantification) in test [3] was found to be 0.23 µM.
